We go through two molecules from patent US20200223912A1.

Assay [1] has as its target human Tau(pS422) fragment (residues 416 to 430 with phosphorylated serine 422) (human). Briefly: ELISA, coated antigen. A general note: In an ELISA, binding on a coated surface is turned into a signal by an enzyme label.
Assay [2] shares this target. The assay can be described thus: ELISA, ratio of EC50 values.
Assay [3] has the same target. Briefly: ELISA, biotinylated peptide on streptavidin plate.

B1: rabbit antibody Mab 086 (VH00/VL00) (antibody, V domains shown)
VH: QSVEESGGRLVTPGTPLTLTCTVSGFSLSSNAINWVRQAPGKGLEWIGYIAVSGNTYYASWAKGRFTISKASTTVDLKMTSPTAEDTGTYFCGKSNIWGPGTLVTVSL
VL: AQVLTQTTSPVSAAVGSTVTISCQSSQSVRTNKLAWFQQKPGQPPKRLIYSASTLDFGVPSRFSASGSGTQFTLTISDVQCDDAATYYCLGYFDCSIADCVAFGGGTEVVVK
The EC50 is the midpoint of the concentration-response curve. Read a high EC50 as a less potent agent. On to B1, for which the EC50 in assay [1] came to 6.3 ng/mL; in assay [3], 1.1 ng/mL. Moreover, in assay [2], the selectivity over non-phosphorylated Tau peptide is over 100 fold.

B2: VH32/VL21 (antibody, V domains shown)
VH: EVQVLESGGGLVQPGGSLRLSCAVSGFSLSSNAINWVRQAPGKGLEWVGYIAVSGNTYYASWAKGRFTISRDNSKNTVYLQMNSLRAEDTAVYYCGKSNIWGQGTLVTVSS
VL: AQVMTQSPSSLSASVGDRVTITCRSSQSVRTNKLAWFQQKPGQPPKRLIYSASTLDFGVPSRFSGSGSGTEFTLTISSLQPEDFATYYCLGYFDSSADIVAFGGGTKVEIK
In assay [1], B2 displayed an EC50 of 4.4 ng/mL.
